Here are results for 61 substances from patent US10227388B2, “Peptides and combination of peptides for use in immunotherapy against non-small cell lung cancer and other cancers” (immatics biotechnologies GmbH, priority 2015, dated 2019).

For this assay, the target named is HLA-A*02:01 (Homo sapiens, UniProt P04439, D140Y/D185E/D98H/E176V/E277Q/G131W/G231S/I119V/I121R/I166T/I218V/L300P/L318F/N151K/N90K/P208A/P217A/Q86G/Q94H/R138H/R169H/T345S). Put plainly: MHC binding assay (UV-ligand exchange, ELISA, peptide exchange yield). To be noted: binding of HLA-class I restricted peptides to HLA-A*02:01. In a few lines:
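Peptide–HLA-A*02:01 complexes made by UV-ligand exchange of a UV-cleavable peptide for the test peptide. Exchange yield measured by ELISA: 100-fold diluted monomers captured on streptavidin, 1 h at 37° C., detected with HRP anti-β2m and TMB, absorbance at 450 nm.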

Turning to “16 (VLFQGQASL; listed as Homo sapiens) [compound 16]”, the “Peptide exchange (MHC class I binding score, peptide exchange yield)” value (“Peptide exchange” below) was “″+++″ (≥50% = +++)”. The value for “100 (YLLSTNAQL; listed as Homo sapiens) [compound 100]” was “″++++″ (≥75% = ++++)”; that for “123 (NLWDLTDASVV; listed as Homo sapiens) [compound 123]” was “″+++″ (≥50% = +++)”; that for “258 (ELAERVPAI; listed as Homo sapiens) [compound 258]” was “″++″ (≥20% = ++)”. The value for “222 (NLIENVQRL; listed as Homo sapiens) [compound 222]” was “″++″ (≥20% = ++)”; that for “595 (VLLSIYPRV; listed as Homo sapiens) [compound 595]” was “″+++″ (≥50% = +++)”. Next, “506 (KLLGKVETA; listed as Homo sapiens) [compound 506]”: “″+++″ (≥50% = +++)”. With “64 (YAAPGGLIGV; listed as Homo sapiens) [compound 64]”, the “Peptide exchange” value was “″++″ (≥20% = ++)”. As for “514 (ILVDWLVQV; listed as Homo sapiens) [compound 514]”, the “Peptide exchange” value is “″+++″ (≥50% = +++)”. On to “541 (SMLEPVPEL; listed as Homo sapiens) [compound 541]”, for which the “Peptide exchange” value is listed as “″+++″ (≥50% = +++)”.

For the substance “438 (KLLPLAGLYL; listed as Homo sapiens) [compound 438]”, the “Peptide exchange” value was “″++++″ (≥75% = ++++)”.

Consider “605 (KLYEAVPQL; listed as Homo sapiens) [compound 605]”, for which the “Peptide exchange” value is recorded as “″+++″ (≥50% = +++)”.

Regarding “335 (YSLSSVVTV; listed as Homo sapiens) [compound 335]”, the “Peptide exchange” value is “″+++″ (≥50% = +++)”. Next, “545 (LLADLLHNV; listed as Homo sapiens) [compound 545]”: “″+++″ (≥50% = +++)”; “212 (ALWDQDNLSV; listed as Homo sapiens) [compound 212]”: “″++″ (≥20% = ++)”; “265 (LLFGGTKTV; listed as Homo sapiens) [compound 265]”: “″++″ (≥20% = ++)”. The value for “146 (SLATAGDGLIEL; listed as Homo sapiens) [compound 146]” was “″++″ (≥20% = ++)”; that for “560 (ALWDIETGQQTTT; listed as Homo sapiens) [compound 560]” was “″+++″ (≥50% = +++)”; that for “388 (SLTIDGIRYV; listed as Homo sapiens) [compound 388]” was “″+++″ (≥50% = +++)”. The value for “433 (AMLNEPWAV; listed as Homo sapiens) [compound 433]” was “″+++″ (≥50% = +++)”; that for “436 (HLAEVSAEV; listed as Homo sapiens) [compound 436]” was “″+++″ (≥50% = +++)”. In the case of “587 (VMNDRLYAI; listed as Homo sapiens) [compound 587]”, the “Peptide exchange” value is given as “″+++″ (≥50% = +++)”. Turning to “163 (ALDEMGDLLQL; listed as Homo sapiens) [compound 163]”, the “Peptide exchange” value is reported as “″+++″ (≥50% = +++)”. The value for “364 (LLQNEQFEL; listed as Homo sapiens) [compound 364]” was “″+++″ (≥50% = +++)”; that for “173 (LLDSASAGLYL; listed as Homo sapiens) [compound 173]” was “″+++″ (≥50% = +++)”. The value for “226 (MLYVVPIYL; listed as Homo sapiens) [compound 226]” was “″++″ (≥20% = ++)”. The value for “570 (ALANQIPTV; listed as Homo sapiens) [compound 570]” was “″++″ (≥20% = ++)”; that for “252 (LLIGTDVSL; listed as Homo sapiens) [compound 252]” was “″+++″ (≥50% = +++)”. With “84 (VTFGEKLLGV; listed as Homo sapiens) [compound 84]”, the “Peptide exchange” value is reported as “″++″ (≥20% = ++)”. Turning to “429 (GLVNDLARV; listed as Homo sapiens) [compound 429]”, the “Peptide exchange” value is reported as “″++″ (≥20% = ++)”. Next, “604 (SILDRDDIFV; listed as Homo sapiens) [compound 604]”: “″+++″ (≥50% = +++)”; “392 (ALLHPQGFEV; listed as Homo sapiens) [compound 392]”: “″++″ (≥20% = ++)”; “72 (SLLELDGINL; listed as Homo sapiens) [compound 72]”: “″+++″ (≥50% = +++)”. Next, “427 (ALLPLSPYL; listed as Homo sapiens) [compound 427]”: “″+++″ (≥50% = +++)”. Next, “122 (FLLAEDDIYL; listed as Homo sapiens) [compound 122]”: “″+++″ (≥50% = +++)”; “426 (RLADKSVLV; listed as Homo sapiens) [compound 426]”: “″+++″ (≥50% = +++)”; “515 (LLQELVLFL; listed as Homo sapiens) [compound 515]”: “″+++″ (≥50% = +++)”.

Take “586 (KLKPGDLVGV; listed as Homo sapiens) [compound 586]”: the “Peptide exchange” value is on record as “″+++″ (≥50% = +++)”. Next, “430 (HLYSSIEHLTT; listed as Homo sapiens) [compound 430]”: “″+++″ (≥50% = +++)”.

For “523 (YQIPRTFTL; listed as Homo sapiens) [compound 523]”, the “Peptide exchange” value was “″++″ (≥20% = ++)”. The value for “380 (TLIEDEIATI; listed as Homo sapiens) [compound 380]” was “″++″ (≥20% = ++)”; that for “609 (ALWKQLLEL; listed as Homo sapiens) [compound 609]” was “″+++″ (≥50% = +++)”; that for “33 (VLLSLLEKV; listed as Homo sapiens) [compound 33]” was “″++″ (≥20% = ++)”. The value for “304 (MTLGQIYYL; listed as Homo sapiens) [compound 304]” was “″+++″ (≥50% = +++)”; that for “459 (ALITEVVRL; listed as Homo sapiens) [compound 459]” was “″++″ (≥20% = ++)”; that for “555 (YVLEGLKSV; listed as Homo sapiens) [compound 555]” was “″+++″ (≥50% = +++)”.

As for “579 (NLMEMVAQL; listed as Homo sapiens) [compound 579]”, the “Peptide exchange” value was “″++″ (≥20% = ++)”. Next, “619 (ALQDRVPLA; listed as Homo sapiens) [compound 619]”: “″+++″ (≥50% = +++)”; “133 (KVLSNIHTV; listed as Homo sapiens) [compound 133]”: “″++″ (≥20% = ++)”. Consider “345 (VIWKALIHL; listed as Homo sapiens) [compound 345]”, for which the “Peptide exchange” value is recorded as “″+++″ (≥50% = +++)”. Next, “490 (FLLQHVQEL; listed as Homo sapiens) [compound 490]”: “″+++″ (≥50% = +++)”; “611 (YLLDDGTLVV; listed as Homo sapiens) [compound 611]”: “″++++″ (≥75% = ++++)”. Next, “32 (KLDDLTQDLTV; listed as Homo sapiens) [compound 32]”: “″++″ (≥20% = ++)”; “61 (FLQGYQLHL; listed as Homo sapiens) [compound 61]”: “″++++″ (≥75% = ++++)”; “520 (LAVHPSGVAL; listed as Homo sapiens) [compound 520]”: “″+″ (≥10% = +)”. Next, “42 (VLLQKIVSA; listed as Homo sapiens) [compound 42]”: “″+++″ (≥50% = +++)”; “606 (ALWETEVYI; listed as Homo sapiens) [compound 606]”: “″+++″ (≥50% = +++)”. For the substance “102 (YLFESEGLVL; listed as Homo sapiens) [compound 102]”, the “Peptide exchange” value is recorded as “″+++″ (≥50% = +++)”. The value for “76 (ILIDSIYKV; listed as Homo sapiens) [compound 76]” was “″+++″ (≥50% = +++)”. The value for “49 (YLPAVFEEV; listed as Homo sapiens) [compound 49]” was “″+++″ (≥50% = +++)”; that for “484 (SLIEKVTQL; listed as Homo sapiens) [compound 484]” was “″+++″ (≥50% = +++)”.
